Here are results for one substance from patent US20100233191A1.

This assay has as its target MPP1 (proaerolysin with the furin site replaced by the PSA substrate HSSKLQ) (Aeromonas hydrophila) (UniProt P09167). Description: cell-based or functional assay.

The substance “Prostate-specific antigen (PSA), also referred as hK3 (from UniProt P07288 25-261) (enzyme)” gave an LD50 (cell killing, Trypan Blue exclusion, PSA-producing LNCaP cells, 24 h) of 100 pM and a fold difference in toxicity, PSA-producing versus non-PSA producing cells of 500 fold.
